System: proteins that co-immunoprecipitated with DUX4-CTD constructs expressed in MB135 myoblasts
Experiment: LC-MS of proteins co-immunoprecipitated with DUX4-CTD (Table 1) and western validation
Assay type: binding, human
Design: key to 4. mL1dL2 + Dox + IFNG / 4. + IFNG mix / 4. longCTD + Dox + IFNG / 3. + IFNg + Dox longCTD / 3. + Dox longCTD / 3. + IFNG longCTD: peptide-spectrum matches (PSMs) per protein
Conditions: for 4. longCTD + Dox + IFNG: LC-MS counts of the listed protein co-immunoprecipitated with DUX4-CTD bait longCTD, experiment 4, Dox + IFNG; for 3. + Dox longCTD / 3. + IFNg + Dox longCTD: bait longCTD; for 3. + Dox longCTD: experiment 3, Dox only; for 3. + IFNg + Dox longCTD: experiment 3, IFNg + Dox; for SUM of PSMS: sum over all samples
Summary of the method: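 Two independent experiments compared uninduced, doxycycline and doxycycline+IFNG MB135iDUX4-CTD (plus MB135iDUX4mL1dL2) myoblasts. Anti-FLAG pulldowns (3 h, 4 °C) were eluted in LDS buffer for western validation or with FLAG peptide for trypsin digestion and Orbitrap LC-MS; hits needed ≥2 PSMs in both experiments, ranked by total PSMs.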

B1: Q9P2E9 (protein, UniProt Q9P2E9 1-1410, looked up)
chain: MDIYDTQTLGVVVFGGFMVVSAIGIFLVSTFSMKETSYEEALANQRKEMAKTHHQKVEKKKKEKTVEKKGKTKKKEEKPNGKIPDHDPAPNVTVLLREPVRAPAVAVAPTPVQPPIIVAPVATVPAMPQEKLASSPKDKKKKEKKVAKVEPAVSSVVNSIQVLTSKAAILETAPKEVPMVVVPPVGAKGNTPATGTTQGKKAEGTQNQSKKAEGAPNQGRKAEGTPNQGKKTEGTPNQGKKAEGTPNQGKKAEGTPNQGKKAEGAQNQGKKVDTTPNQGKKVEGAPTQGRKAEGAQNQAKKVEGAQNQGKKAEGAQNQGKKGEGAQNQGKKAEGAQNQGKKAEGAQNQGKKAEGAQNQGKKAEGAQNQGKKAEGAQNQGKKAEGAQNQGKKVEGAQNQGKKAEGAQNQGKKAEGAQNQGKKAEGAQNQGKKAEGAQNQGKKAEGAQNQGKKAEGAQNQGKKAEGAQNQGKKVEGAQNQGKKAEGAQNQGKKAEGAQNQGKKAEGAQNQGQKGEGAQNQGKKTEGAQGKKAERSPNQGKKGEGAPIQGKKADSVANQGTKVEGITNQGKKAEGSPSEGKKAEGSPNQGKKADAAANQGKKTESASVQGRNTDVAQSPEAPKQEAPAKKKSGSKKKGEPGPPDADGPLYLPYKTLVSTVGSMVFNEGEAQRLIEILSEKAGIIQDTWHKATQKGDPVAILKRQLEEKEKLLATEQEDAAVAKSKLRELNKEMAAEKAKAAAGEAKVKKQLVAREQEITAVQARMQASYREHVKEVQQLQGKIRTLQEQLENGPNTQLARLQQENSILRDALNQATSQVESKQNAELAKLRQELSKVSKELVEKSEAVRQDEQQRKALEAKAAAFEKQVLQLQASHRESEEALQKRLDEVSRELCHTQSSHASLRADAEKAQEQQQQMAELHSKLQSSEAEVRSKCEELSGLHGQLQEARAENSQLTERIRSIEALLEAGQARDAQDVQASQAEADQQQTRLKELESQVSGLEKEAIELREAVEQQKVKNNDLREKNWKAMEALATAEQACKEKLLSLTQAKEESEKQLCLIEAQTMEALLALLPELSVLAQQNYTEWLQDLKEKGPTLLKHPPAPAEPSSDLASKLREAEETQSTLQAECDQYRSILAETEGMLRDLQKSVEEEEQVWRAKVGAAEEELQKSRVTVKHLEEIVEKLKGELESSDQVREHTSHLEAELEKHMAAASAECQNYAKEVAGLRQLLLESQSQLDAAKSEAQKQSDELALVRQQLSEMKSHVEDGDIAGAPASSPEAPPAEQDPVQLKTQLEWTEAILEDEQTQRQKLTAEFEEAQTSACRLQEELEKLRTAGPLESSETEEASQLKERLEKEKKLTSDLGRAATRLQELLKTTQEQLAREKDTVKKLQEQLEKAEDGSSSKEGTSV
modifications: full-length
4. longCTD + Dox + IFNG: 4
3. + Dox longCTD: 24
3. + IFNg + Dox longCTD: 68
SUM of PSMS: 112

B2: P20020 (protein, UniProt P20020 1-1220, looked up)
chain: MGDMANNSVAYSGVKNSLKEANHDGDFGITLAELRALMELRSTDALRKIQESYGDVYGICTKLKTSPNEGLSGNPADLERREAVFGKNFIPPKKPKTFLQLVWEALQDVTLIILEIAAIVSLGLSFYQPPEGDNALCGEVSVGEEEGEGETGWIEGAAILLSVVCVVLVTAFNDWSKEKQFRGLQSRIEQEQKFTVIRGGQVIQIPVADITVGDIAQVKYGDLLPADGILIQGNDLKIDESSLTGESDHVKKSLDKDPLLLSGTHVMEGSGRMVVTAVGVNSQTGIIFTLLGAGGEEEEKKDEKKKEKKNKKQDGAIENRNKAKAQDGAAMEMQPLKSEEGGDGDEKDKKKANLPKKEKSVLQGKLTKLAVQIGKAGLLMSAITVIILVLYFVIDTFWVQKRPWLAECTPIYIQYFVKFFIIGVTVLVVAVPEGLPLAVTISLAYSVKKMMKDNNLVRHLDACETMGNATAICSDKTGTLTMNRMTVVQAYINEKHYKKVPEPEAIPPNILSYLVTGISVNCAYTSKILPPEKEGGLPRHVGNKTECALLGLLLDLKRDYQDVRNEIPEEALYKVYTFNSVRKSMSTVLKNSDGSYRIFSKGASEIILKKCFKILSANGEAKVFRPRDRDDIVKTVIEPMASEGLRTICLAFRDFPAGEPEPEWDNENDIVTGLTCIAVVGIEDPVRPEVPDAIKKCQRAGITVRMVTGDNINTARAIATKCGILHPGEDFLCLEGKDFNRRIRNEKGEIEQERIDKIWPKLRVLARSSPTDKHTLVKGIIDSTVSDQRQVVAVTGDGTNDGPALKKADVGFAMGIAGTDVAKEASDIILTDDNFTSIVKAVMWGRNVYDSISKFLQFQLTVNVVAVIVAFTGACITQDSPLKAVQMLWVNLIMDTLASLALATEPPTESLLLRKPYGRNKPLISRTMMKNILGHAFYQLVVVFTLLFAGEKFFDIDSGRNAPLHAPPSEHYTIVFNTFVLMQLFNEINARKIHGERNVFEGIFNNAIFCTIVLGTFVVQIIIVQFGGKPFSCSELSIEQWLWSIFLGMGTLLWGQLISTIPTSRLKFLKEAGHGTQKEEIPEEELAEDVEEIDHAERELRRGQILWFRGLNRIQTQIRVVNAFRSSLYEGLEKPESRSSIHNFMTHPEFRIEDSEPHIPLIDDTDAEDDAPTKRNSSPPPSPNKNNNAVDSGIHLTIEMNKSATSSSPGSPLHSLETSL
modifications: full-length
4. longCTD + Dox + IFNG: 13
3. + Dox longCTD: 1
3. + IFNg + Dox longCTD: 1
SUM of PSMS: 36

B3: P68104 (protein, UniProt P68104 1-462, looked up)
chain: MGKEKTHINIVVIGHVDSGKSTTTGHLIYKCGGIDKRTIEKFEKEAAEMGKGSFKYAWVLDKLKAERERGITIDISLWKFETSKYYVTIIDAPGHRDFIKNMITGTSQADCAVLIVAAGVGEFEAGISKNGQTREHALLAYTLGVKQLIVGVNKMDSTEPPYSQKRYEEIVKEVSTYIKKIGYNPDTVAFVPISGWNGDNMLEPSANMPWFKGWKVTRKDGNASGTTLLEALDCILPPTRPTDKPLRLPLQDVYKIGGIGTVPVGRVETGVLKPGMVVTFAPVNVTTEVKSVEMHHEALSEALPGDNVGFNVKNVSVKDVRRGNVAGDSKNDPPMEAAGFTAQVIILNHPGQISAGYAPVLDCHTAHIACKFAELKEKIDRRSGKKLEDGPKFLKSGDAAIVDMVPGKPMCVESFSDYPPLGRFAVRDMRQTVAVGVIKAVDKKAAGAGKVTKSAQKAQKAK
modifications: full-length
4. longCTD + Dox + IFNG: 9
3. + Dox longCTD: 9
3. + IFNg + Dox longCTD: 21
SUM of PSMS: 46

B4: Q14240 (protein, UniProt Q14240 1-407, looked up)
chain: MSGGSADYNREHGGPEGMDPDGVIESNWNEIVDNFDDMNLKESLLRGIYAYGFEKPSAIQQRAIIPCIKGYDVIAQAQSGTGKTATFAISILQQLEIEFKETQALVLAPTRELAQQIQKVILALGDYMGATCHACIGGTNVRNEMQKLQAEAPHIVVGTPGRVFDMLNRRYLSPKWIKMFVLDEADEMLSRGFKDQIYEIFQKLNTSIQVVLLSATMPTDVLEVTKKFMRDPIRILVKKEELTLEGIKQFYINVEREEWKLDTLCDLYETLTITQAVIFLNTRRKVDWLTEKMHARDFTVSALHGDMDQKERDVIMREFRSGSSRVLITTDLLARGIDVQQVSLVINYDLPTNRENYIHRIGRGGRFGRKGVAINFVTEEDKRILRDIETFYNTTVEEMPMNVADLI
modifications: full-length
4. longCTD + Dox + IFNG: 6
3. + Dox longCTD: 1
SUM of PSMS: 7

B5: P04899 (protein, UniProt P04899 1-355, looked up)
chain: MGCTVSAEDKAAAERSKMIDKNLREDGEKAAREVKLLLLGAGESGKSTIVKQMKIIHEDGYSEEECRQYRAVVYSNTIQSIMAIVKAMGNLQIDFADPSRADDARQLFALSCTAEEQGVLPDDLSGVIRRLWADHGVQACFGRSREYQLNDSAAYYLNDLERIAQSDYIPTQQDVLRTRVKTTGIVETHFTFKDLHFKMFDVGGQRSERKKWIHCFEGVTAIIFCVALSAYDLVLAEDEEMNRMHESMKLFDSICNNKWFTDTSIILFLNKKDLFEEKITHSPLTICFPEYTGANKYDEAASYIQSKFEDLNKRKDTKEIYTHFTCATDTKNVQFVFDAVTDVIIKNNLKDCGLF
modifications: full-length
4. longCTD + Dox + IFNG: 11
3. + IFNg + Dox longCTD: 1
SUM of PSMS: 29
